From article PMC9512048, “Characterization of a xylitol dehydrogenase from Aspergillus flavus and its application in L-xylulose production” (Frontiers in Bioengineering and Biotechnology, 2022) come the findings set out here.

One data set has as its target T1, AfXDH (Aspergillus flavus, UniProt A0A7U2N396).
T1 construct: gene F9C07_11531; full length, 369 residues, 38,893 Da; 6xHis tag (printed as C-terminal, vector pQE80L); E. coli BL21 (DE3); monomer, 2 Zn per monomer
T1 sequence (A0A7U2N396 1-369): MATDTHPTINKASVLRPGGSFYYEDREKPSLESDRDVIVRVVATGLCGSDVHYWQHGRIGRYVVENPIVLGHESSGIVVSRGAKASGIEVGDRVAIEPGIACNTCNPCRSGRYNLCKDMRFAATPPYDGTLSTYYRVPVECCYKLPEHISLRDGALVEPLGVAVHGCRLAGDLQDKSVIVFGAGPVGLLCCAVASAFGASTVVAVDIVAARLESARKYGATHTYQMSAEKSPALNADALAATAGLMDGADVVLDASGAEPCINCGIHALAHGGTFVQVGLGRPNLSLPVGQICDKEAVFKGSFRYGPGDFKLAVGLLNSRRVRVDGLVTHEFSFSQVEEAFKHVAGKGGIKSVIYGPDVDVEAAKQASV
The experiment in a line: product inhibition of xylitol oxidation. Type of data set: biochemical. The settings on record: read-out: K i, NADH.

Substrate in data set [1]: NC(=O)c1ccc[n+]([C@@H]2O[C@H](COP(=O)(O)OP(=O)(O)OC[C@H]3O[C@@H](n4cnc5c(N)ncnc54)[C@H](O)[C@@H]3O)[C@@H](O)[C@H]2O)c1
The experiment in a line: NADH formation at A340, Michaelis-Menten fit. Format: biochemical, Aspergillus flavus. The settings on record: xylitol, 20 mM Tris-glycine pH 9.5, 0.1 mM Zn2+, 0.1-3 mM NAD+, b45 prints 0.15 mM, varied: cofactor. An excerpt: (§1) NADH formation at A340, Michaelis-Menten fit on AfXDH

Substrate in data set [2]: OC[C@@H](O)[C@H](O)[C@@H](O)CO
The experiment in a line: NADH formation at A340, Michaelis-Menten fit. Format: biochemical, Aspergillus flavus. The settings on record: NAD+, 20 mM Tris-glycine pH 9.5, 0.1 mM Zn2+, 16.9 in abstract and Table 2, but b45 prints 16.2 mM.
Text: as §1

Substrate in the data set “NADH formation at A340”: OC[C@@H](O)[C@@H](O)[C@H](O)[C@@H](O)CO
The experiment in a line: NADH formation at A340. Format: biochemical, Aspergillus flavus. The settings on record: NAD+, pH 9.5, only in abstract, b45 prints 16.2 mM for xylitol, so order in abstract may be uncertain.

Consider `NC(=O)C1=CN([C@@H]2O[C@H](COP(=O)(O)OP(=O)(O)OC[C@H]3O[C@@H](n4cnc5c(N)ncnc54)[C@H](O)[C@@H]3O)[C@@H](O)[C@H]2O)C=CC1` [NADH], for which the Ki at AfXDH stood at 250 µM.

B1: AfXDH (Aspergillus flavus NRRL3357) (protein)
chain: MATDTHPTINKASVLRPGGSFYYEDREKPSLESDRDVIVRVVATGLCGSDVHYWQHGRIGRYVVENPIVLGHESSGIVVSRGAKASGIEVGDRVAIEPGIACNTCNPCRSGRYNLCKDMRFAATPPYDGTLSTYYRVPVECCYKLPEHISLRDGALVEPLGVAVHGCRLAGDLQDKSVIVFGAGPVGLLCCAVASAFGASTVVAVDIVAARLESARKYGATHTYQMSAEKSPALNADALAATAGLMDGADVVLDASGAEPCINCGIHALAHGGTFVQVGLGRPNLSLPVGQICDKEAVFKGSFRYGPGDFKLAVGLLNSRRVRVDGLVTHEFSFSQVEEAFKHVAGKGGIKSVIYGPDVDVEAAKQASV
notes: full length, 369 residues, 38,893 Da; 6xHis tag (printed as C-terminal, vector pQE80L); E. coli BL21 (DE3); monomer, 2 Zn per monomer
Consider B1, for which, in data set [1], the Michaelis constant (Km) – broadly, the concentration of substrate that gives half-maximal velocity – is listed as 0.17 mM. Also, in data set [2], the Km is 16.9 mM; the turnover number (kcat) (commonly the maximal rate divided by the concentration of active sites) was found to be 48.67 s⁻¹; the specificity constant (kcat/Km) (as a rule, the second-order rate constant that governs catalysis at low substrate concentration) stood at 2880 M⁻¹ s⁻¹. Further, in the data set “NADH formation at A340”, the Michaelis-Menten constant (Km) is 16.2 mM.
